In patent EP4674438A1, “ANTIBODY-DRUG CONJUGATE CONTAINING ANTI-CD138 ANTIBODY” (priority 2023, dated 2024):
Blank lines part the entries; values can stand above or below the binder they belong to.

Experiments:
human CD138 protein [1] = biological target: T1, human CD138 protein (human, UniProt P18827 23-310); assay: cell-based or functional assay
T1 sequence: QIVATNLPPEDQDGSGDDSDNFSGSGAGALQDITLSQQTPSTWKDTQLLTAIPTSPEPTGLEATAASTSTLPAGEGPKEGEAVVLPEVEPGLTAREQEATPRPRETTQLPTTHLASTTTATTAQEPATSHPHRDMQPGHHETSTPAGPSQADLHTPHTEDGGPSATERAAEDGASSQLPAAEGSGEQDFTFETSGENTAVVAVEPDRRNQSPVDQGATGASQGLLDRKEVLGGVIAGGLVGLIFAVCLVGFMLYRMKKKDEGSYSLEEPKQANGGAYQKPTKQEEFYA

human CD138 protein [2] = biological target: T1, human CD138 protein; assay: flow cytometry on AsPC-1 cells, 0.001 to 100 ug/ml, anti-human IgG Fc-APC
human CD138 protein [3] = biological target: T1, human CD138 protein; assay: flow cytometry on AsPC-1 cells (legend of Figure 1)

B1: Antibody-drug conjugate 3 (ADC3) (antibody, V domains shown)
VH: QVQLQQSGSELMMPGASVKISCKATGYTFSNYWIEWVKQRPGHGLEWIGEILPGTGRTIYNEKFKGKATFTADISSNTVQMQLSSLTSEDSAVYYCARRDYYGNFYYAMDYWGQGTLVTVSS
VL: DIQMTQSTSSLSASLGDRVTISCSASQGINNYLNWYQQKPDGTVELLIYYTSTLQSGVPSRFSGSGSGTDYSLTISNLEPEDIGTYYCQQYSKLPRTFGGGTKLEIKR
modifications: MC-VC-PAB-MMAE on cysteine sulfhydryls after TCEP reduction of hinge disulfide bonds; positions not given; DAR 7.1
- IC50 (ng/ml), cytotoxicity, Capan-1 (CD138-positive), CellTiter-Glo 2.0 (human CD138 protein [1]): 13 ng/mL

B2: Antibody-drug conjugate 4 (ADC4) (antibody, human IgG1, kappa, V domains shown)
VH: B1 VH
VL: B1 VL
modifications: MC-VC-PAB-MMAF on cysteine sulfhydryls after TCEP reduction of hinge disulfide bonds; positions not given; DAR 2.2
- IC50 (ng/ml), cytotoxicity, Capan-1 (CD138-positive), CellTiter-Glo 2.0 (human CD138 protein [1]): 165 ng/mL

- binding result (human CD138 protein [2]): binds
B3: Antibody 1 (antibody, V domains shown)
VH: B1 VH
VL: B1 VL
notes: expressed in HEK293 cells; Same light chain as Antibody 2 (nBT062); also called anti-CD138 antibody

B4: Antibody-drug conjugate 10 (ADC10) (antibody, human IgG1, kappa, L234A L235A, V domains shown)
VH: QVQLVQSGAEVKKPGSSVKVSCKASGYTFSNYWIEWVRQAPGQGLEWIGEILPGTGRTIYNEKFKGRATFTADESTSTAYMELSSLRSEDTAVYYCARRDYYGNFYYAMDYWGQGTLVTVSS
VL: DIQMTQSPSSLSASVGDRVTITCSASQGINNYLNWYQQKPGKAPKLLIYYTSTLQSGVPSRFSGSGSGTDYTLTISSLQPEDFATYYCQQYSKLPRTFGGGTKVEIKR
modifications: MC-VC-PAB-MMAE on cysteine sulfhydryls after TCEP reduction of hinge disulfide bonds; positions not given; DAR 7.8
- IC50 (ng/ml), cytotoxicity, Capan-1 (CD138-positive), CellTiter-Glo 2.0 (human CD138 protein [1]): 29 ng/mL

- binding result (human CD138 protein [3]): binds
B5: Antibody 5 (antibody, human IgG1, kappa, L234A L235A, V domains shown)
VH: B4 VH
VL: B4 VL
notes: Humanized; also called anti-CD138 antibody
